Reference: patent US20200353078A1 (AstraZeneca / MedImmune, published 2020)
Blank lines part the entries; values can stand above or below the binder they belong to.

Experiments:
[1] = target: T1, Human IL-33 (Axxora/Alexis ALX-522-098) (human, UniProt O95760 112-270); assay: cell-based or functional assay
T1 sequence (looked up): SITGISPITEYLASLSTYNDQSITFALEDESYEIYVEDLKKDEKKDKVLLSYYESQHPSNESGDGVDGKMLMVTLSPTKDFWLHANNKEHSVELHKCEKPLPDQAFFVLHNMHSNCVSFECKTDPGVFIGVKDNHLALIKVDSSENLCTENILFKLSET

[2] = target: T2, Human IL-33 (Axxora/Adipogen AG-40B-0038) (human, UniProt O95760 112-270, limits assumed); assay: cell-based or functional assay
T2 sequence (looked up): T1 sequence (looked up)

[3] = target: T3, Cynomolgus IL-33 Flag®His (cynomolgus monkey); assay: ELISA, biotinylated antigen on streptavidin plate, anti-human IgG HRP
T3 construct: C-terminal FLAG 10xHis tag, E. coli; also called Mature Cynomolugus IL-33; cyno IL-33 FH
T3 chain: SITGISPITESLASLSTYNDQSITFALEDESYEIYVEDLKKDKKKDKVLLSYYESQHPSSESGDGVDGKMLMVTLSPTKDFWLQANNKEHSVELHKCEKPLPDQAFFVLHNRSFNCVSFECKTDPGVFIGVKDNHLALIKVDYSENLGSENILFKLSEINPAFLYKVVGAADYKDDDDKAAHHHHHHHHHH
Method: (§1) 96-well Greiner polypropylene plates (Greiner, 650201) were used for dilution preparation. Generally, each dilution was prepared in duplicate. IgG dilutions were allowed to block in PBS-M for 1 hour at room temperature before being used directly in ELISA experiments.
(§2) Streptavidin plates (Thermo Scientific, AB-1226) were coated with biotinylated antigen at 0.5 μg/ml in PBS and incubated overnight at 4° C. Plates were washed 3× with PBS and blocked with 300 μl/well blocking buffer (PBS-M) for 1 hour. Plates were washed 1× with PBS and blocked samples added, 50 μl/well for 1 hour at room temperature. […] Plates were washed 3× with PBS-T and developed with TMB, 50 μl/well (Sigma, T0440). The reaction was quenched with 50 μl/well 0.1M H2504 before reading on an EnVision™ plate reader, or similar equipment, at 450 nm.
(§3) Species cross-reactivity of anti-IL-33 antibodies was determined using a plate-based ELISA. Streptavidin plates (Thermo Scientific, AB-1226) were coated with biotinylated antigen at 0.5 μg/ml in PBS. Binding of purified IgG preparations was detected with anti-human IgG HRP (Sigma, A0170).

Human IL-33 Flag®His [4] = target: T4, Human IL-33 Flag®His (human); assay: as above
T4 construct: Mature IL-33 with C-terminal FLAG 10xHis tag, from E. coli; biotinylated via free cysteines where used biotinylated; also called Mature Human IL-33_FH; human IL-33 FH
T4 chain: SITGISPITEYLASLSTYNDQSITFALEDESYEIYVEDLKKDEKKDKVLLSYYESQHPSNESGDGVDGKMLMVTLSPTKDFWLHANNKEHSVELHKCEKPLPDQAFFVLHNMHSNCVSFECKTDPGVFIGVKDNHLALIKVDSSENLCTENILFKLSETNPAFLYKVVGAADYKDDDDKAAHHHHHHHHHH
Method: as §1, §2, §3

Mouse IL-33 Flag®His [5] = target: T5, Mouse IL-33 Flag®His (mouse); assay: ELISA, biotinylated antigen on streptavidin plate, purified IgG
T5 construct: C-terminal FLAG 10xHis tag, E. coli; also called Mature Mouse IL-33_FH; mouse IL-33 FH
T5 chain: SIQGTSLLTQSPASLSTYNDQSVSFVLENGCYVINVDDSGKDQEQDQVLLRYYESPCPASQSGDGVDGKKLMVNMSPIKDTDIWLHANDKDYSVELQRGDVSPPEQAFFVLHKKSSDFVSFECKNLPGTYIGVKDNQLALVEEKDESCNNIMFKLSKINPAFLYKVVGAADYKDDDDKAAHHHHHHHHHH
Method: as §2, §3

[6] = target: T2, Human IL-33 (Axxora/Adipogen …); assay: cell-based or functional assay; remark: listed apart in the source
[7] = target: T2, Human IL-33 (Axxora/Adipogen …); assay: cell-based or functional assay; remark: listed apart in the source
Mouse IL-33 Flag®His [8] = target: T5, Mouse IL-33 Flag®His; assay: ELISA, biotinylated antigen on streptavidin plate, anti-human IgG HRP
Method: as §1, §2, §3

Human IL-33 Flag®His [9] = target: T4, Human IL-33 Flag®His; assay: BIAcore 2000 solution affinity, 48 h equilibration at 25 C, free IgG read on biotinylated IL-33 chip
Method: The binding affinity of purified IgG samples of exemplary binding members to human, cynomolgus or mouse IL-33 was determined by solution affinity using a BIAcore 2000 (GE healthcare). A biotinylated-IL33 surface was immobilised on a streptavin coated sensor chip (GE healthcare cat. No. BR-1000-32). Anti-IL33 antibodies were incubated with various concentrations of unlabelled IL33 and equilibrated at 25° C. for 48 hours. The amount of free antibody was determined by flowing the samples over the IL33 chip and measuring the response compared to a standard curve of antibody. Affinities were determined using the solution affinity fit in BIAevaluation software. The affinities for antibodies IL330101, H338L293, IL330388, IL330396 binding to human, cynomolgus or mouse IL-33 are shown in Table 15.

[10] = target: T6, Human ST2-Fc (R&D Systems, or source not stated in the example) (human, UniProt Q01638 19-328); assay: SPR BIAcore 2000, ST2 captured via Fc-tag on anti-human Fc, IL-33 7.8 nM to 0.24 nM as analyte, 1:1 Langmuir
T6 construct: extracellular domain; also called sST2.Fc; sST2
T6 sequence (looked up): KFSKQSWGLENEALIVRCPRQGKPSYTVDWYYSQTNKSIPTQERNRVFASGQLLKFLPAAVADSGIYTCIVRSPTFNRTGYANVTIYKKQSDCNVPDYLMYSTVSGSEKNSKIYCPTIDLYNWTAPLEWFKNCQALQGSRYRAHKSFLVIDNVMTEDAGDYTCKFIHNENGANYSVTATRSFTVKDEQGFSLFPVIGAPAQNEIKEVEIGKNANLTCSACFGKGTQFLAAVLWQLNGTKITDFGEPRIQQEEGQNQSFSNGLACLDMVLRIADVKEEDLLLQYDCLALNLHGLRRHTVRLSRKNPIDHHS
Method: The disulphide bonded IL-33 is likely a very different structure to the reduced, ST2-binding IL-33 form (FIG. 22, 23), and conversion to the disulphide bonded form was associated with loss of functional activity (FIG. 17C). To investigate this, the disulphide bonded form of IL-33 was tested for ability to bind ST2 by BIAcore analysis. Direct binding of IL-33 to the extracellular domain of ST2 was determined by Surface Plasmon Resonance using a BIAcore 2000 (GE healthcare). ST2 was immobilised via the Fc-tag using an anti-human Fc capture (GE healthcare BR-1003-39) on a CM5 sensor chip (GE healthcare BR-1003-99) to give a stable surface of approximately 150 RU. IL-33 was flowed over the surface at 30 ul/min for three minutes to determine association rates. Dissociation was measured by flowing buffer at 30 ul/min for 15 minutes. Sensorgrams were interpreted using BIAevaluation software and kinetics were determined using double reference subtracted sensorgrams using a 1:1 (Langmuir) binding model.

[11] = target: T7, H338L293 (SEQ ID NOs 182 and 187); assay: Biacore T100, IgG captured on Protein G', 0.625-20 nM peptide as analyte, 1:1 fit
T7 construct: IgG; also called H338L293_fgl; H338L293 IgG
Excerpt: The identified peptide together with a truncate ([…]) and scrambled variants of both, were then chemically synthesised and used in confirmatory T100 Biacore (GE Healthcare) binding studies. Protein G′ (Sigma Aldrich, P4689) was covalently coupled to the surface of a CM5 sensor chip (GE Healthcare) using standard amine coupling reagents according to manufacturer's instructions. The protein G′ surface was used to capture H338L293 or ST2-Fc via the Fc domain to provide a surface density of approximately 290 RU per cycle. IL33 peptides prepared in HBS-EP+ buffer, at a range of concentrations were passed over the sensor chip surface. The surface was regenerated using two 10 mM Glycine washes of pH 1.7 and pH 1.5 between each injection of antibody. The resulting sensorgrams were evaluated using Biacore T100 evaluation software 2.0.3 (GE Healthcare) and fitted to a 1:1 Langmuir binding model, to provide relative binding data.

T7 sequence (VL, as listed by the source): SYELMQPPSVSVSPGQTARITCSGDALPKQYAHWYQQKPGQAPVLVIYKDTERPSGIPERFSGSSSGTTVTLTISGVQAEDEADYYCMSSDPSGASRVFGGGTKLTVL

B1: IL330065 IgG (antibody, V domains shown)
VH: EVQLVQSGAEVKKPGTAVKISCKASGYTFTDYYIHWVQQAPGKGLEWMGLVDPEDGETKYAEKFQGRVSITADTSTDTAYMELRSLTSEDTAVYFCTMGWAQWGRGTLVTVSS
VL: QSVLTQPPSASGTPGQRVTISCSGSSSNIGSNYVYWYQQVPGTAPKLVIYRDFQRPSGVPDRFSGSKSGNSASLVISGLRSEDEGEYVCAAWDDSLTGPRFGGGTKVTVL
notes: IgG1 or IgG1-TM (L234F, L235E, P331S); functional data combine both formats
IC50 (geomean), TF-1 proliferation [1]: 81 nM | IC50 (geomean), Huvec IL-6 production [2]: 87 nM | IC50 (geomean), Mast cell IL-6 production [2]: 12 nM | EC50 [3]: 0.66 nM | EC50 (Human IL-33 Flag®His [4]): 0.65 nM | binding result (Mouse IL-33 Flag®His [5]): no binding

B2: IL330101 IgG (antibody, V domains shown)
VH: EVQLLESGGGLVQPGGSLRLSCAASGFTFSSYAMSWVRQAPGKGLEWVSAISGSGGSTYYADSVKGRFTISRDNSKNTLYLQMNSLRAEDTAVYYCVRVVAGYFDSWGRGTLVTVSS
VL: SYVLTQPPSVSVSPGQTARITCSGDALPKQYAHWYQQKPGQAPALVIYKDTERPSGIPERFSGSSSGTTVTLTISGVQAEDEADYYCQSADSSGASRVFGGGTKVTVL
notes: IgG1 or IgG1-TM; also called mAb IL330101; IL3300101
IC50, Huvec IL-6 production [6]: 193 nM | IC50, Mast cell IL-6 production [6]: 93 nM | Huvec IL-6 production, maximum inhibition [7]: ~70% | Mast cell IL-6 production, inhibition [7]: 100% | IC50, TF-1 proliferation [1]: 149 nM | IC50 (geomean), Huvec IL-6 production [2]: 497 nM | IC50 (geomean), Mast cell IL-6 production [2]: 49 nM | EC50 [3]: 1.2 nM | EC50 (Mouse IL-33 Flag®His [8]): 0.85 nM | EC50 (Human IL-33 Flag®His [4]): 1.19 nM | Kd (Human IL-33 Flag®His [9]): 0.0032 pM

Now from value to binder:

Kd [10]: 0.2 nM
B3: redIL-33 (detagged human IL33-01, BK349) (ligand, UniProt O95760 112-270, looked up)
chain: T1 sequence (looked up)
notes: Reduced form; also called reduced IL-33; Human IL33-01 detagged

Kd [11]: 2.36 nM
B4: Truncated IL-33 epitope peptide (peptide)
peptide: LSPTKDFWLHANNKEHSVELHK
notes: Chemically synthesised; also called truncate peptide
